Data set [1] deals with HeLa Kyoto. Briefly: thermal stability score vs G1/S (z-score of summed log2 fold changes over temperatures); higher = more thermally stable than in G1/S.
For data set [2], the system named is HeLa Kyoto. Briefly: melting temperature (median over replicates), in situ; higher = more thermally stable.
Data set [3] concerns HeLa Kyoto. Briefly: solubility in G1/S (NP-40 vs SDS abundance) (log2 ratio); higher = more soluble. The settings on record: cell cycle stage: G1/S.
In data set [4] the test system is HeLa Kyoto. As to the kind of experiment: solubility change mitosis vs G1/S (difference of NP-40 vs SDS log2 ratios) (log2 ratio difference); higher = more soluble in mitosis.
Setting [5] is: cell cycle stage: early G1 (4.5 h after nocodazole release).
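Throughout, for melting temperature (median over replicates), in situ: HeLa Kyoto cells synchronized by double thymidine or nocodazole block, proteins quantified by TMT10plex mass spectrometry, three independent biological replicates.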
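Throughout, for solubility change mitosis vs G1/S (difference of NP-40 vs SDS log2 ratios): synchronized HeLa Kyoto cells (double thymidine block for G1/S, nocodazole release for mitosis), protein amounts in NP-40 versus SDS lysates quantified by mass spectrometry, three biological replicates.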
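Throughout, for solubility in G1/S (NP-40 vs SDS abundance): HeLa Kyoto cells arrested at G1/S by double thymidine block, proteins quantified by TMT10plex mass spectrometry in mild NP-40 versus SDS extracts, three biological replicates.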
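Throughout, for thermal stability score vs G1/S (z-score of summed log2 fold changes over temperatures): synchronized HeLa Kyoto cells, proteins quantified by TMT10plex mass spectrometry, three biological replicates, mitosis taken 0.5 h after nocodazole release, G1/S directly after double thymidine block.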

As for “MSAHNRGTELDLSWISKIQVNHPAVLRRAEQIQARRTVKKEWQAAWLLKAVTFIDLTTLSGDDTSSNIQRLCYKAKYPIREDLLKALNMHDKGITTAAVCVYPARVCDAVKALKAAGCNIPVASVAAGFPAGQTHLKTRLEEIRLAVEDGATEIDVVINRSLVLTGQWEALYDEIRQFRKACGEAHLKTILATGELGTLTNVYKASMIAMMAGSDFIKTSTGKETVNATFPVAIVMLRAIRDFFWKTGNKIGFKPAGGIRSAKDSLAWLSLVKEELGDEWLKPELFRIGASTLLSDIERQIYHHVTGRYAAYHDLPMS [DERA]”, the thermal stability score in data set [1] (setting [5]) was -3.39; in data set [1] (cell cycle stage: mitosis) it was -3.58. Further, the melting temperature in data set [2] (cell cycle stage: G1/S) and in data set [2] (cell cycle stage: mitosis) was 56.1 °C each time. Further, the “solubility in G1/S (log2)” value in data set [3] was -0.131. The “solubility change mitosis (log2)” value in data set [4] is -0.0424.

Consider “MSAPFEERSGVVPCGTPWGQWYQTLEEVFIEVQVPPGTRAQDIQCGLQSRHVALSVGGREILKGKLFDSTIADEGTWTLEDRKMVRIVLTKTKRDAANCWTSLLESEYAADPWVQDQMQRKLTLERFQKENPGFDFSGAEISGNYTKGGPDFSNLEK [NUDCD2]”, for which the figures for the thermal stability score in data set [1] (setting [5]) and in data set [1] (cell cycle stage: mitosis) were 1.01 and 2.41, respectively. The results for the melting temperature in data set [2] (cell cycle stage: G1/S) and in data set [2] (cell cycle stage: mitosis) were 47.7 °C and 49.5 °C, respectively. Moreover, the “solubility in G1/S (log2)” value in data set [3] stood at 0.372. In data set [4], the “solubility change mitosis (log2)” value was 0.035.

With “MSAPLDAALHALQEEQARLKMRLWDLQQLRKELGDSPKDKVPFSVPKIPLVFRGHTQQDPEVPKSLVSNLRIHCPLLAGSALITFDDPKVAEQVLQQKEHTINMEECRLRVQVQPLELPMVTTIQMSSQLSGRRVLVTGFPASLRLSEEELLDKLEIFFGKTRNGGGDVDVRELLPGSVMLGFARDGVAQRLCQIGQFTVPLGGQQVPLRVSPYVNGEIQKAEIRSQPVPRSVLVLNIPDILDGPELHDVLEIHFQKPTRGGGEVEALTVVPQGQQGLAVFTSESG [IFI35]”, the thermal stability score is -1.43 in data set [1] (setting [5]) and -2.41 in data set [1] (cell cycle stage: mitosis). Further, the melting temperature is 54.6 °C in data set [2] (cell cycle stage: G1/S) and 55.2 °C in data set [2] (cell cycle stage: mitosis). For the same sequence, in data set [3], the “solubility in G1/S (log2)” value came to 0.654. Also, the “solubility change mitosis (log2)” value in data set [4] was -0.0643.

Take “MSASAVYVLDLKGKVLICRNYRGDVDMSEVEHFMPILMEKEEEGMLSPILAHGGVRFMWIKHNNLYLVATSKKNACVSLVFSFLYKVVQVFSEYFKELEEESIRDNFVIIYELLDELMDFGYPQTTDSKILQEYITQEGHKLETGAPRPPATVTNAVSWRSEGIKYRKNEVFLDVIESVNLLVSANGNVLRSEIVGSIKMRVFLSGMPELRLGLNDKVLFDNTGRGKSKSVELEDVKFHQCVRLSRFENDRTISFIPPDGEFELMSYRLNTHVKPLIWIESVIEKHSHSRIEYMIKAKSQFKRRSTANNVEIHIPVPNDADSPKFKTTVGSVKWVPENSEIVWSIKSFPGGKEYLMRAHFGLPSVEAEDKEGKPPISVKFEIPYFTTSGIQVRYLKIIEKSGYQALPWVRYITQNGDYQLRTQ [AP1M1]”: the results for the thermal stability score in data set [1] (setting [5]) and in data set [1] (cell cycle stage: mitosis) were -0.363 and -0.744, respectively. For the same sequence, the figures for the melting temperature in data set [2] (cell cycle stage: G1/S) and in data set [2] (cell cycle stage: mitosis) were 50.8 °C and 50.6 °C, respectively. Moreover, in data set [3], the “solubility in G1/S (log2)” value is -0.0655. Moreover, the “solubility change mitosis (log2)” value in data set [4] was -0.209.

For “MSASGVLSFTQQGWEQVLAKVKRAVVYLDAACAESLHWGCGSTRLLEAVGGPDCHLREFEPDAIGGGAKQPKAVFVLSCLLKGRTVEILRDIICRSHFQYCVVVTTVSHAVHLTANHVPAAAAAEMEGQQPVFEQLEEKLCEWMGNMNYTAEVFHVPLLLAPVAPHFALTPAFASLFPLLPQDVHLLNSARPDKRKLGSLGDVDSTTLTPELLLQIRCLVSGLSSLCEHLGVREECFAVGSLSQVIAADLANYAPAKNRKKTAAGRASVVFVDRTLDLTGAVGHHGDNLVEKIISALPQLPGHTNDVMVNMIALTALHTEEENYNVVAPGCLSQSSDTTAKALWEALLNTKHKEAVMEVRRHLVEAASRENLPIKMSMGRVTPGQLMSYIQLFKNNLKALMNHCGLLQLGLATAQTLKHPQTAKWDNFLAFERLLLQSIGESAMSVVLNQLLPMIKPVTQRTNEDYSPEELLILLIYIYSVTGELTVDKDLCEAEEKVKKALAQVFCEESGLSPLLQKITDWDSSINLTFHKSKIAVDELFTSLRDIAGARSLLKQFKSVYVPGNHTHQASYKPLLKQVVEEIFHPERPDSVDIEHMSSGLTDLLKTGFSMFMKVSRPHPSDYPLLILFVVGGVTVSEVKMVKDLVASLKPGTQVIVLSTRLLKPLNIPELLFATDRLHPDLGF [SCFD2]”, the results for the thermal stability score in data set [1] (setting [5]) and in data set [1] (cell cycle stage: mitosis) were -0.157 and 0.192, respectively. Also, the results for the melting temperature in data set [2] (cell cycle stage: G1/S) and in data set [2] (cell cycle stage: mitosis) were 49.8 °C and 49.9 °C, respectively. Also, the “solubility in G1/S (log2)” value in data set [3] is -0.12. In addition, in data set [4], the “solubility change mitosis (log2)” value was -0.0249.

For the sequence “MSATAAARKRGKPASGAGAGAGAGKRRRKADSAGDRGKSKGGGKMNEEISSDSESESLAPRKPEEEEEEELEETAQEKKLRLAKLYLEQLRQQEEEKAEARAFEEDQVAGRLKEDVLEQRGRLQKLVAKEIQAPASADIRVLRGHQLSITCLVVTPDDSAIFSAAKDCSIIKWSVESGRKLHVIPRAKKGAEGKPPGHSSHVLCMAISSDGKYLASGDRSKLILIWEAQSCQHLYTFTGHRDAVSGLAFRRGTHQLYSTSHDRSVKVWNVAENSYVETLFGHQDAVAALDALSRECCVTAGGRDGTVRVWKIPEESQLVFYGHQGSIDCIHLINEEHMVSGADDGSVALWGLSKKRPLALQREAHGLRGEPGLEQPFWISSVAALLNTDLVATGSHSSCVRLWQCGEGFRQLDLLCDIPLVGFINSLKFSSSGDFLVAGVGQEHRLGRWWRIKEARNSVCIIPLRRVPVPPAAGS [RRP9]”, the values for the thermal stability score in data set [1] (setting [5]) and in data set [1] (cell cycle stage: mitosis) were -3.65 and -9.84, respectively. In addition, the melting temperature in data set [2] (cell cycle stage: G1/S) was 59.7 °C; in data set [2] (cell cycle stage: mitosis) it was 56.5 °C. For the same sequence, the “solubility in G1/S (log2)” value in data set [3] is -1.11. Moreover, the “solubility change mitosis (log2)” value in data set [4] is 0.596.

As for “MSCCDLAAAGQLGKASIMASDCEPALNQAEGRNPTLERYLGALREAKNDSEQFAALLLVTKAVKAGDIDAKTRRRIFDAVGFTFPNRLLTTKEAPDGCPDHVLRALGVALLACFCSDPELAAHPQVLNKIPILSTFLTARGDPDDAARRSMIDDTYQCLTAVAGTPRGPRHLIAGGTVSALCQAYLGHGYGFDQALALLVGLLAAAETQCWKEAEPDLLAVLRGLSEDFQKAEDASKFELCQLLPLFLPPTTVPPECYRDLQAGLARILGSKLSSWQRNPALKLAARLAHACGSDWIPAGSSGSKFLALLVNLACVEVRLALEETGTEVKEDVVTACYALMELGIQECTRCEQSLLKEPQKVQLVSVMKEAIGAVIHYLLQVGSEKQKEPFVFASVRILGAWLAEETSSLRKEVCQLLPFLVRYAKTLYEEAEEANDLSQQVANLAISPTTPGPTWPGDALRLLLPGWCHLTVEDGPREILIKEGAPSLLCKYFLQQWELTSPGHDTSVLPDSVEIGLQTCCHIFLNLVVTAPGLIKRDACFTSLMNTLMTSLPALVQQQGRLLLAANVATLGLLMARLLSTSPALQGTPASRGFFAAAILFLSQSHVARATPGSDQAVLALSPEYEGIWADLQELWFLGMQAFTGCVPLLPWLAPAALRSRWPQELLQLLGSVSPNSVKPEMVAAYQGVLVELARANRLCREAMRLQAGEETASHYRMAALEQCLSEP [NCDN]”, the thermal stability score in data set [1] (setting [5]) is 1.7; in data set [1] (cell cycle stage: mitosis), 2.44. The melting temperature in data set [2] (cell cycle stage: G1/S) amounted to 49.8 °C; in data set [2] (cell cycle stage: mitosis) it was 50.2 °C. In data set [3], the “solubility in G1/S (log2)” value is 0.191. The “solubility change mitosis (log2)” value in data set [4] was -0.084.

The values are drawn from the supplement of paper PMC5998384.
